Measured values published in PMC5884710, “Cork-in-Bottle Occlusion of Fluoride Ion Channels by Crystallization Chaperones” (Structure(London, England:1993), 2018).

Target: the molecule itself
Test: crystal structure; in meso crystals of the Bpe-S8 complex; 26% PEG 550MME, 0.1 M sodium citrate, pH 5.0; 2.8 A

B1: Fluoride channel from B. pertussis (Fluc homolog Bpe) (natural protein)
chain: MLTYAPLNFIAIGIGATLGAWLRWVLGLRLNGAGWPWGTLTANLVGGYLIGVMVALIASHPEWPAWIRLAAVTGFLGGLTTFSTFSAETVDMLERGVYATAAAYAGASLAGSLAMTGLGLATVRLLLR
notes: Fluc family fluoride ion channel homolog Bpe from B. pertussis; homodimer of two antiparallel subunits (subunits A and B in PDB 6BQO); pET21c with Bpe gene, C-terminal hexahistidine tag; Construct as in Stockbridge et al., 2013; also called Fluc channel; Fluc homologue "Bpe"; source: E. coli, purified (as described in Stockbridge et al., 2013); reconstituted into liposomes for …
With B1 the “stoichiometry N” value was 2.
